{"source": "patent US7208293", "binders": {"B1": {"name": "human neutrophil elastase (enzyme, UniProt P08246 30-247, looked up)", "chain": "IVGGRRARPHAWPFMVSLQLRGGHFCGATLIAPNFVMSAAHCVANVNVRAVRVVLGAHNLSRREPTRQVFAVQRIFENGYDPVNLLNDIVILQLNGSATINANVQVAQLPAQGRRLGNGVQCLAMGWGLLGRNRGIASVLQELNVTVVTSLCRRSNVCTLVRGRQAGVCFGDSGSPLVCNGLIHGIASFVRGGCASGLYPDAFAPVAQFVNWIDSIIQ", "notes": "also called HNE; HNE beads"}}, "key": {"[1]": {"target": "T1, BPTI(K15L)-III MA phage (bovine; phage M13)", "T1 construct": "Whole M13 phage (ampicillin resistance) displaying the variant on gene III protein; also called BPTI(K15L)-III phage", "assay": "pH elution from HNE beads", "description": "Samples were mixed on a Labquake shaker for 3 hours. The beads were washed with 0.5 ml of TBS/BSA for 5 minutes and recovered by centrifugation. The supernatant was removed and the beads were washed 5 times with 0.5 ml of TBS/0.1% Tween-20. Finally, the beads were resuspended in 0.5 ml of elution buffer (0.1 M HCl containing 1.0 mg/ml BSA adjusted to pH 2.2 with glycine), mixed for 5 minutes and recovered by centrifugation. The supernatant fraction was removed, neutralized with 130 µl of 1 M Tris, pH 8.0, diluted in LB broth, and titered for plaque-forming units on a lawn of cells."}, "[2]": {"target": "T2, BPTI(K15L,MGNG)-III MA phage (bovine; phage M13)", "T2 construct": "also called BPTI3.CL; BPTI-IIIMK (K15L MGNG)", "T2 sequence (chain, as listed by the source)": "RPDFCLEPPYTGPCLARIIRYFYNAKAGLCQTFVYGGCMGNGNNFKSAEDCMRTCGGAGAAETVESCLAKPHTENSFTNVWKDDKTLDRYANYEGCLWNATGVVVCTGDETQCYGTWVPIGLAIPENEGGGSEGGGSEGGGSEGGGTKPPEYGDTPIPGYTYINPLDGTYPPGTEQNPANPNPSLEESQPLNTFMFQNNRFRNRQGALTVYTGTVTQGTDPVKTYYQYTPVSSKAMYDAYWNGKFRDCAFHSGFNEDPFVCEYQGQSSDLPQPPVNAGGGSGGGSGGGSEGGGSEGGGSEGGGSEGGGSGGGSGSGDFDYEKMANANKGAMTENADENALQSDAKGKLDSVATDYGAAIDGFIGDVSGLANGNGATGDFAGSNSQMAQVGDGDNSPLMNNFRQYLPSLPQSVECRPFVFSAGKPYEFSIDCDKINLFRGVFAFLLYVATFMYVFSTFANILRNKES", "assay": "phage eluted from HNE beads"}}}
{"binder": "B1", "values": [{"measurement": "binding result", "setting": "[1]", "result": "binds"}, {"measurement": "binding result", "setting": "[2]", "result": "binds"}]}
